# Patent US20200308223A1 (IMMUNWORK, published 2020)
# B1: stabilized (scFv α CD19)-Fc-MBM-3 X 2 DOTA bundles (Fc fusion)
# chain: EIVLTQSPAIMSASPGERVTMTCSASSGVNYMHWYQQKPGTSPRRWIYDTSKLASGVPARFSGSGSGTDYSLTISSMEPEDAATYYCHQRGSYTFGGGTKLEIKRGSTSGSGKPGSGEGSTKGQVQLVQPGAEVVKPGASVKLSCKTSGYTFTSNWMHWVKQAPGQGLEWIGEIDPSDSYTNYNQNFQGKAKLTVDKSTSTAYMEVSSLRSDDTAVYYCARGSNPYYYAMDYWGQGTSVTVSSGGGASDKTHTCPPCPAPELLGGPSVFLFPPKPKDTLMISRTPEVTCVVVDVSHEDPEVKFNWYVDGVEVHNAKTKPREEQYNSTYRVVSVLTVLHQDWLNGKDYKCKVSNKALPAPIEKTISKAKGQPREPQVYTLPPSRDELTRNQVSLTCLVKGFYPSDIAVEWESNGQPENNYKTTPPVLDSDGSFFLYSKLTVDKSRWQQGNVFSCSVMHEALHNHYTQKSLSLSPGGGGGCGGHA
# modifications: cysteine residue of the C-terminal metal binding motif GCGGHA conjugated with one Mal-Peptide 2-DOTA bundle (three DOTA on a maleimido-ethyl peptide core)
# notes: also called recombinant 2-chain (scFv α CD19)-Fc-MBM-3 X 2 DOTA bundles; 2-chain (VL-VH scFv α CD19)-Fc-MBM-3 conjugated with two DOTA bundles
# Biological target: T1, human CD19 (human, UniProt P15391 20-556)
# T1 construct: whole, on cells; also called CD19 on Raji cells; CD19 on Ramos cells
# T1 sequence (looked up): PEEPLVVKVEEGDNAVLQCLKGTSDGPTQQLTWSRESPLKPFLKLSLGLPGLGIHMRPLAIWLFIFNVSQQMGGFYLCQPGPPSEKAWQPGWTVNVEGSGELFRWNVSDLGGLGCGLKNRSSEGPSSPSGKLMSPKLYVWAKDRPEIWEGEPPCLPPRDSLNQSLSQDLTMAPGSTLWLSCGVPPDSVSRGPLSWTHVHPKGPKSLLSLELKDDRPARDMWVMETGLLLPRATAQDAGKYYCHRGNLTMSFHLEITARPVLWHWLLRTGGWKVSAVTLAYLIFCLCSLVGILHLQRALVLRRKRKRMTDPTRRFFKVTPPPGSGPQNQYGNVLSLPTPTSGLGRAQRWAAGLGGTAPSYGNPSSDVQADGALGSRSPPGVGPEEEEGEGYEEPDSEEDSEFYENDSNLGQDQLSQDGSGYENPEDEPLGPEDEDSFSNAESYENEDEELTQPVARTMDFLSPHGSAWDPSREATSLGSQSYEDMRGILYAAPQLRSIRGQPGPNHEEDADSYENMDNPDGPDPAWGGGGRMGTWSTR
# Test: flow cytometry (FACS) on CD19-expressing Raji cells, 0.001 µg/ml construct, FITC goat anti-human IgG.Fc detection
# Experimental: The assay was performed by incubating 1×10⁶CD19-expressing Raji cells with 0.001 μg/ml of each construct in PBS, 1% BSA on ice for 30 minutes, using anti-CD19 antibody (RB4v1.2), (scFv α CD19)-Fc-MBM-1 X 2 DOTA bundles and (scFv α CD19)-Fc-MBM-3 X 2 DOTA bundles as positive controls. The anti-HER2 antibody (trastuzumab) was used as a negative control. The staining of cells was analyzed by FACS (FACSCanto II; BD Biosciences) using FITC-conjugated goat anti-human IgG.Fc (diluted 1:200 in PBS/BSA) (Caltag, Buckingham, UK) at 4° C. for 20 minutes in the dark.
binder,measurement,value
B1,binding result,binds
